Values of other authors in patent publication US20200222508A1 (Arecor Limited, priority 2016, published 2020).

Details: in vivo

Substance: Albiglutide: GLP-1 dimer fused to human albumin, SEQ ID NO: 5
- circulating half-life: 96 to 170 h

Substance: Dulaglutide: GLP-1 analogue consisting of GLP-1(7-37) covalently linked to an Fc fragment of human IgG4, SEQ ID NO: 6
- circulating half-life: approximately 5 days

Substance: Lixisenatide: analogue of exendin-4, proline omitted at position 38, six lysine residues added at C-terminal, SEQ ID NO: 8
- circulating half-life: 2 to 4 h
